Ends that are not written are not given here. Peptide text beside a SMILES is read from it. * marks the point of attachment. Dansyl = CN(C)c1cccc2c(S(=O)(=O)*)cccc12

Test [1] concerns P100 membrane fraction of Caco-2 cells. In words: Dansylated peptide ELISA: relative binding of PAX2 and HAX42 peptides to P100 fractions (ratio to ZElan021). The conditions noted are these: ratio to ZElan021 = 1.00. As to the method:
The peptides and proteins were analyzed by a dansylated peptide ELISA method in which 96 well plates were coated overnight at 4° C. with 100 μl/well coating protein (normally 100 μg/ml P100 membrane fraction) in 0.05M carbonate buffer pH9.6. Nonspecific binding was blocked using 200 μl/well, 2% Marvel/PBS for 2 hours at 37° C. prior to incubation with dansylated peptides. The plates were washed three times with PBS/0.05% Tween 20 and after each subsequent incubation step. […] A buffer blank control was included to ensure that background binding to plastic was not due to the antibodies used in the assay system. […] Plates were developed using 75 μl/well Bionostics TMB substrate and incubated for approximately 10 minutes. The developing reaction was stopped using Bionostics Red Stop solution (25 μl/well), and the optical density of the plates was read at 650 nm. […]
For orientation: An ELISA detects its analyte on a solid surface through an enzyme-linked reagent.

In test [2] the target is bovine serum albumin (bovine) (UniProt P02769). In words: phage ELISA on coated BSA.
Sequence of bovine serum albumin (bovine) (P02769 25-607 limits assumed): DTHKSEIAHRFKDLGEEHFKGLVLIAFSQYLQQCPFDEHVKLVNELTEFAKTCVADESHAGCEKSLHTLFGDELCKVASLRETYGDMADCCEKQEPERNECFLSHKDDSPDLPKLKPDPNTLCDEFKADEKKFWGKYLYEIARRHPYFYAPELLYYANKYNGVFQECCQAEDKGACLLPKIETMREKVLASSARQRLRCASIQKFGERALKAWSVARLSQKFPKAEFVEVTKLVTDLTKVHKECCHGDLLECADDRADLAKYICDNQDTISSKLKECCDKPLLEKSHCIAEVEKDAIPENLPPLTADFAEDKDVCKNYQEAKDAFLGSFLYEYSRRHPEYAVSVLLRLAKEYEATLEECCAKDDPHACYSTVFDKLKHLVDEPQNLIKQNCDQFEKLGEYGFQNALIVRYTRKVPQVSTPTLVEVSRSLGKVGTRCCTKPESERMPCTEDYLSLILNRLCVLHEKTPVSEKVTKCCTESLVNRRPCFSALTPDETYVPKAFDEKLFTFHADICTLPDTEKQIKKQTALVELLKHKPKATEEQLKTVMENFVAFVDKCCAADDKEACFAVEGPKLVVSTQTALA

Consider `CC(C)C[C@H](NC(=O)[C@H](CCCNC(=N)N)NC(=O)[C@H](CCCNC(=N)N)NC(=O)[C@H](CC(N)=O)NC(=O)[C@H](Cc1c[nH]cn1)NC(=O)[C@H](CO)NC(=O)[C@H](CO)NC(=O)[C@@H](N)CCCCNS(=O)(=O)c1cccc2c(N(C)C)cccc12)C(=O)N[C@@H](CCCNC(=N)N)C(=O)N[C@H](C(=O)N[C@@H](CCCNC(=N)N)C(N)=O)[C@@H](C)O` [ZElan035] (H-K(Dansyl)SSHNRRLRTR-NH2), for which the “Binding value at 20 μg/ml” value in test [1] (PAX2 peptides, first column) is 0.12; in test [1] (PAX2 peptides, second column) it was 0.43. Also, the “Binding value at 50 μg/ml” value in test [1] (PAX2 peptides, first column) came out at 0.81; in test [1] (PAX2 peptides, second column), 0.77.
On to `CC[C@H](C)[C@H](NC(=O)[C@H](C)NC(=O)[C@H](CO)NC(=O)[C@@H]1CCCN1C(=O)[C@H](CCCNC(=N)N)NC(=O)[C@H](CCCNC(=N)N)NC(=O)[C@H](CCCNC(=N)N)NC(=O)[C@H](CC(N)=O)NC(=O)[C@H](Cc1ccccc1)NC(=O)[C@@H](NC(=O)[C@H](CCCCN)NC(=O)[C@H](CCCNC(=N)N)NC(=O)CNC(=O)[C@@H](NC(=O)[C@H](CO)NC(=O)[C@H](CC(N)=O)NC(=O)CNC(=O)[C@H](CC(N)=O)NC(=O)CNC(=O)[C@H](CS)NC(=O)[C@H](CS)NC(=O)[C@H](CC(N)=O)NC(=O)[C@H](Cc1ccc(O)cc1)NC(=O)[C@H](CC(=O)O)NC(=O)CNC(=O)[C@@H](N)CCCCNS(=O)(=O)c1cccc2c(N(C)C)cccc12)[C@@H](C)O)C(C)C)C(=O)N1CCC[C@H]1C(=O)N[C@H](C(N)=O)[C@@H](C)O` [ZElan061] (H-K(Dansyl)GDYNCCGNGNSTGRKVFNRRRPSAIPT-NH2), for which, in test [1] (HAX42 peptides), the “Binding value at 20 μg/ml” value was 0.20. The “Binding value at 50 μg/ml” value is listed as 0.60 in test [1] (HAX42 peptides, first column) and 0.38 in test [1] (HAX42 peptides, second column).
Take H2N—K(dns)PGDYNCCGNGNSTG [ZElan091]: the “Binding value at 25 μg/ml” value amounted to 2.02 in test [1] (HAX42 peptides, first column); 1.37 in test [1] (HAX42 peptides, second column); 1.20 in test [1] (HAX42 peptides, third column).
With “K(Dansyl)GRNHDVVSSNTHKSYRSPRSASYPRLSNDRTDRTEPAPSS-NH2 [ZElan083]”, the “Binding value at 20 μg/ml” value in test [1] (PAX2 peptides, first column) was determined as 0.43; in test [1] (PAX2 peptides, second column) it was 0.63. Besides, the “Binding value at 50 μg/ml” value in test [1] (PAX2 peptides, second column) was determined as 0.88.
On to `CC(C)C[C@H](NC(=O)[C@H](C)NC(=O)[C@H](Cc1c[nH]cn1)NC(=O)[C@H](CC(=O)O)NC(=O)[C@H](CO)NC(=O)[C@@H](N)CCCCNS(=O)(=O)c1cccc2c(N(C)C)cccc12)C(=O)NCC(=O)N[C@H](C(=O)N[C@@H](CC(N)=O)C(=O)N[C@@H](CC(C)C)C(=O)N[C@@H](CCCNC(=N)N)C(=O)N[C@@H](CO)C(=O)N[C@@H](CC(=O)O)C(=O)N[C@@H](CC(N)=O)C(=O)N[C@@H](C)C(=O)N[C@@H](CCCCN)C(=O)N[C@@H](CCC(=O)O)C(=O)N1CCC[C@H]1C(=O)NCC(=O)N[C@@H](CC(=O)O)C(=O)N[C@@H](Cc1ccc(O)cc1)C(=O)N[C@@H](CC(N)=O)C(=O)N[C@@H](CS)C(=O)N[C@@H](CS)C(=O)NCC(=O)N[C@@H](CC(N)=O)C(=O)NCC(=O)N[C@@H](CC(N)=O)C(=O)N[C@@H](CO)C(=O)N[C@H](C(N)=O)[C@@H](C)O)[C@@H](C)O` [ZElan070] (H-K(Dansyl)SDHALGTNLRSDNAKEPGDYNCCGNGNST-NH2), for which the “Binding value at 20 μg/ml” value in test [1] (HAX42 peptides) stood at 0.59. Moreover, the “Binding value at 50 μg/ml” value turned out to be 0.97 in test [1] (HAX42 peptides, first column) and 0.39 in test [1] (HAX42 peptides, second column).
As for REWRFAGPPLDLWAGPSLPSFNASSHPRALRTYWSQRPR [phage DAX23], the OD in test [2] was 0.153 OD 650 nm.
On the same count and under the same terms, to SPCGGSWGRFMQGGLFGGRTDGCGAHRNRTSASLEPPSSDY [phage SNi34] belongs 0.115 OD 650 nm; to SKSGEGGDSSRGETGWARVRSHAMTAGRFRWYNQLPSDR [phage DAB10], 0.153 OD 650 nm.
For RWCGADDPCGASRWRGGNSLFGCGLRCSAAQSTPSGRIHSTSTS [phage DAB7], the OD in test [2] was found to be 0.09 OD 650 nm.

B1: phage SNiAX6 (peptide)
peptide: RTTTAKGCLLGSFGVLSGCSFTPTSPPPHLGYPPHSVN
modifications: cysteine pairing not given here; also: displayed as N-terminal pIII fusion on M13 phage
B1 had an OD in test [2] of 0.056 OD 650 nm.
Still for that read-out and setting: with SKWSWSSRWGSPQDKVEKTRAGCGGSPSSTNCHPYTFAPPPQAG [phage DAB24] the figure was 0.441 OD 650 nm; with SHPWYRHWNHGDFSGSGQSRHTPPESPHPGRPNATI [phage DAX27], 0.424 OD 650 nm.
Molecule RGAADQRRGWSENLGLPRVGWDAIAHNSYTFTSRRPRPP [phage SNi38] displayed an OD in test [2] of 0.076 OD 650 nm.
As to SGGEVSSWGRVNDLCARVSWTGCGTARSARTDNKGFLPKHSSLR [phage SNi45], the OD in test [2] worked out at 0.056 OD 650 nm.
Still for that read-out and setting: to SGFWEFSRGLWDGENRKSVRSGCGFRGSSAQGPCPVTPATIDKH [phage DAB30] belongs 0.121 OD 650 nm.
Still for that read-out and setting: to RVGQCTDSDVRRPWARSCAHQGCGAGTRNSHGCITRPLRQASAH [phage SNi10] belongs 0.051 OD 650 nm; to RSGAYESPDGRGGRSYVGGGGGCGNIGRKHNLWGLRTASPACWD [phage S15], 0.053 OD 650 nm.
On the same count and under the same terms, with SESGRCRSVSRWMTTWQTQKGGCGSNVSRGSPLDPSHQTGHATT [phage DAX15] the figure was 0.101 OD 650 nm; with RMEDIKNSGWRDSCRWGDLRPGCGSRQWYPSNMRSSRDYPAGGH [phage DAX24], 0.118 OD 650 nm; with SHSGGMNRAYGDVFRELRDRWNATSHHTRPTPQLPRGPN [phage SNi28], 0.113 OD 650 nm.
In the case of SGRTTSEISGLWGWGDDRSGYGWGNTLRPNYIPYRQATNRHRYT [phage DCX26], the OD in test [2] came to 0.213 OD 650 nm.

B2: phage SNiAX2 (peptide)
peptide: SDSDGDHYGLRGGVRCSLRDRGCGLALSTVHAGPPSFYPKLSSP
modifications: cysteine pairing not given here; also: displayed as N-terminal pIII fusion on M13 phage
As for B2, in test [2], the OD worked out at 0.065 OD 650 nm.
Same read-out and setting: to RSSANNCEWKSDWMRRACIARYANSSGPARAVDTKAAP [phage DAB18] belongs 0.085 OD 650 nm; to SPKLSSVGVMTKVTELPTEGPNAISIPISATLGPRNPLR (also: displayed as N-terminal pIII fusion on M13 phage) [phage SNiAX8], 0.068 OD 650 nm.
Same read-out and setting: with RWCGAELCNSVTKKFRPGWRDHANPSTHHRTPPPSQSSP [phage DAB3] the figure was 0.072 OD 650 nm.

Source of the values: US7053177B1, “Random peptides that bind to gastro-intestinal tract (GIT) transport receptors and related methods” (Cytogen Corporation, priority 1997, dated 2006).
